From patent publication US20190211057A1 (NATIONAL YANG MING UNIVERSITY, published 2019)

Legend:
[1] = biological target: T1, integrin αvβ3 receptor (UniProt P06756 31-992; P05106 27-718); experiment: ELISA on integrin αvβ3 receptor, anti-His6-HRP; paragraph 61 says yCD and yCD/UPRT cannot be bound to integrin αvβ3
T1 construct: also called αvβ3 integrin; αvβ3 integrin receptor
From the text: (§1) The dissociation constant Kd is obtained by prism software with curve fitting method.

[2] = biological target: T2, integrin αvβ3 receptor on cells (HUVEC, U87MG, MCF-7, ES-2-luc) (human, UniProt P06756 31-1048; P05106 27-788); experiment: cell-based or functional assay
T2 sequence (P06756 31-1048, chain 1 of 2): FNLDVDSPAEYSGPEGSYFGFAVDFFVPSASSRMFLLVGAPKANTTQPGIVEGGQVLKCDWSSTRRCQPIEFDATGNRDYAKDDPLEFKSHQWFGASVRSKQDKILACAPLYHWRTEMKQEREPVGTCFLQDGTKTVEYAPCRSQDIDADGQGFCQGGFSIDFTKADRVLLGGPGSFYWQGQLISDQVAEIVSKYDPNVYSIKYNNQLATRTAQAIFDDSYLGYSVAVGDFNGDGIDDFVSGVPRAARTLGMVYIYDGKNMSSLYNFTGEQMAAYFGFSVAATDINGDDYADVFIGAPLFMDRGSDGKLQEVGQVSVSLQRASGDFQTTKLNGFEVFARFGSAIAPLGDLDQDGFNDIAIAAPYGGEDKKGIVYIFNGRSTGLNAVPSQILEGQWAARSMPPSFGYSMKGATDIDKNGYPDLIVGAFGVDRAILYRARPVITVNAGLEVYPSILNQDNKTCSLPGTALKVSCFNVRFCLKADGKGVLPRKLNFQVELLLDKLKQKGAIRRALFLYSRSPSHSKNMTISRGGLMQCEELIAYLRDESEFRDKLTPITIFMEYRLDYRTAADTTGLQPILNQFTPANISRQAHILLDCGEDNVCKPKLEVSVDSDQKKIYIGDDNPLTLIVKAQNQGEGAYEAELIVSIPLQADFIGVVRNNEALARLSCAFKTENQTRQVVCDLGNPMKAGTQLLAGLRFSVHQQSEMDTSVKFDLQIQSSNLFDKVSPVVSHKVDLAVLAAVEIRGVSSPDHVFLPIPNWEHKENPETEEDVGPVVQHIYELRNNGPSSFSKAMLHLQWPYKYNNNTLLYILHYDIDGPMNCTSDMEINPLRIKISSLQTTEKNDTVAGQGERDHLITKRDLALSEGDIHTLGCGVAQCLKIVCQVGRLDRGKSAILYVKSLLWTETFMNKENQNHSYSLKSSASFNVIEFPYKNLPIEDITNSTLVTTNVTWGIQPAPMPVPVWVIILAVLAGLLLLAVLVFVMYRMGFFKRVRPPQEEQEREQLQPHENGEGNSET
T2 sequence (P05106 27-788, chain 2 of 2): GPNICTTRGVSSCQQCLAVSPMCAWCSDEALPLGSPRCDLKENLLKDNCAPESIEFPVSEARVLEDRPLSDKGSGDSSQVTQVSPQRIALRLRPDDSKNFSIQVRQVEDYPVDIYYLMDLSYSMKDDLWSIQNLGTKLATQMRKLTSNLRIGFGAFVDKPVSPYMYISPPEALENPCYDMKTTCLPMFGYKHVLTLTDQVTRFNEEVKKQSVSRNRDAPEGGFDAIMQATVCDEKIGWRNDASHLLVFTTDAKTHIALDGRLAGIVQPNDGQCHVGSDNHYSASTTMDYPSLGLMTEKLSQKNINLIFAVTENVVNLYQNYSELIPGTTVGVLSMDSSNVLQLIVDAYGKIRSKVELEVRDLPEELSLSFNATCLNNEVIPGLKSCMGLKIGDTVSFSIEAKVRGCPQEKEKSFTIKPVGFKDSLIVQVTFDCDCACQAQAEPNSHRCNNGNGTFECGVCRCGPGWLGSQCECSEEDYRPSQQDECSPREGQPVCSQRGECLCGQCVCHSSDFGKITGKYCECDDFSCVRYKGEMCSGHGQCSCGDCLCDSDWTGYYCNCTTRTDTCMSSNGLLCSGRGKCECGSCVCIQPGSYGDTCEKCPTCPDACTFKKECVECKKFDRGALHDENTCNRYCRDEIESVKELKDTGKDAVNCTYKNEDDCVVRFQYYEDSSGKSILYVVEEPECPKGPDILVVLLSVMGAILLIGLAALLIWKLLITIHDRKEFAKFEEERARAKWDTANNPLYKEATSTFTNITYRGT

[3] = biological target: T2, integrin αvβ3 receptor on cells (HUVEC, …); experiment: cell-based or functional assay; remark: listed apart in the source
[4] = biological target: T2, integrin αvβ3 receptor on cells (HUVEC, …); experiment: cell ELISA, HUVEC against MCF-7
[5] = biological target: T2, integrin αvβ3 receptor on cells (HUVEC, …); experiment: cell ELISA, U87MG against MCF-7
[6] = biological target: T1, integrin αvβ3 receptor; experiment: ELISA on αvβ3 integrin receptor
[7] = biological target: T2, integrin αvβ3 receptor on cells (HUVEC, …); experiment: cell ELISA on fixed HUVEC cells, anti-His6tag-HRP
[8] = biological target: T2, integrin αvβ3 receptor on cells (HUVEC, …); experiment: cell ELISA on fixed U87MG cells, anti-His6tag-HRP
[9] = biological target: T2, integrin αvβ3 receptor on cells (HUVEC, …); experiment: cell ELISA on fixed MCF-7 cells (low αvβ3 expression), anti-His6tag-HRP
[10] = biological target: T1, integrin αvβ3 receptor; experiment: ELISA on integrin αvβ3 receptor (repeats Table 14)
[11] = biological target: T1, integrin αvβ3 receptor; experiment: ELISA on integrin αvβ3 receptor, one site-specific binding fit
From the text: The curve and receptor binding ability parameters (see FIG. 19 and Table 14) are fitted by the binding ability of DTPA-modified protein and integrin αᵥβ₃ receptor through the One site-Specific binding formula in the Graph prism program.

[12] = biological target: T2, integrin αvβ3 receptor on cells (HUVEC, …); experiment: cell-based or functional assay; remark: listed apart in the source
[13] = biological target: T2, integrin αvβ3 receptor on cells (HUVEC, …); experiment: cell ELISA on HUVEC cells, anti-His-HRP
From the text: (§2) After reacted with anti-His-HRP antibody and TMB substrate, ELISA reader (OD450 nm) is used to detect the amount of recombinant protein bound to the cells, and the binding curve is drawn. The nonlinear curve of the prism software is used to make a diagram and calculate the dissociation constant (Kd).
(§3) The anti-His6-Tag-HRP antibody and TMB show the color reagent to detect the amount of recombinant protein bound to the cell, then the dissociation constant Kd value of the recombinant protein and the integrin αᵥβ₃ receptor is calculated and a binding curve is drawn.

[14] = biological target: T2, integrin αvβ3 receptor on cells (HUVEC, …); experiment: cell ELISA on U87MG cells, anti-His-HRP
From the text: as §2, §3

[15] = biological target: T2, integrin αvβ3 receptor on cells (HUVEC, …); experiment: cell ELISA on MCF-7 cells (low αvβ3 expression), anti-His-HRP
From the text: as §2, §3

[16] = biological target: T1, integrin αvβ3 receptor; experiment: ELISA on integrin αvβ3 receptor, anti-His6-HRP detection, curve fit
From the text: as §1

[17] = biological target: T2, integrin αvβ3 receptor on cells (HUVEC, …); experiment: immunofluorescence on U87MG and HUVEC cells, no anti-His6tag signal
From the text: Immunofluorescence is used to observe the distribution of the protein bound with cell in the cell.

T1 sequence (P06756 31-992, chain 1 of 2): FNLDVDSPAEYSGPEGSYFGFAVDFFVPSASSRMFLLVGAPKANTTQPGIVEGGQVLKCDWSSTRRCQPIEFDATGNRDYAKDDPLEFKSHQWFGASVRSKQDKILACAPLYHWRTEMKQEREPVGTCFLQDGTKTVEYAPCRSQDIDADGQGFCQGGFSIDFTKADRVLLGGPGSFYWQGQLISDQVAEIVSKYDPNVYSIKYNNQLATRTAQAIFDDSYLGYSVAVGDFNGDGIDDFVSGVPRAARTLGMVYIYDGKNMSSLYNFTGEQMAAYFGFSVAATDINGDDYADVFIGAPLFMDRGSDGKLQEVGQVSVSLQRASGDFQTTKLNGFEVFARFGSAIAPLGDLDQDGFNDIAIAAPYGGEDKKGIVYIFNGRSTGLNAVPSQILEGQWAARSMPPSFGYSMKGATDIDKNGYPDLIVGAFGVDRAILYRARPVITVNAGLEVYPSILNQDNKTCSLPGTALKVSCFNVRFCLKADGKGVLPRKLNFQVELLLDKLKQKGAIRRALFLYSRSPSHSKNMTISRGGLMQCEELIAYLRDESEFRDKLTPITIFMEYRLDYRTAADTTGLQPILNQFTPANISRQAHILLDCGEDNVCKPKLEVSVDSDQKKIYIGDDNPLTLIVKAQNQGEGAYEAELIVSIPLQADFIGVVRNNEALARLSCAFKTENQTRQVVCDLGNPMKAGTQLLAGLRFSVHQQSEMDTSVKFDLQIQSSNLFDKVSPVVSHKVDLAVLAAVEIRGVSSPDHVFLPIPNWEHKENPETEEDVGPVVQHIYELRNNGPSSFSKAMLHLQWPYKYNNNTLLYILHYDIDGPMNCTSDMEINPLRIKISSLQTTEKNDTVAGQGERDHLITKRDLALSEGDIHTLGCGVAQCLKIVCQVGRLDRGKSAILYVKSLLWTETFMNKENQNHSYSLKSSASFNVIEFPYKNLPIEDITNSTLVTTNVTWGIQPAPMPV
T1 sequence (P05106 27-718, chain 2 of 2): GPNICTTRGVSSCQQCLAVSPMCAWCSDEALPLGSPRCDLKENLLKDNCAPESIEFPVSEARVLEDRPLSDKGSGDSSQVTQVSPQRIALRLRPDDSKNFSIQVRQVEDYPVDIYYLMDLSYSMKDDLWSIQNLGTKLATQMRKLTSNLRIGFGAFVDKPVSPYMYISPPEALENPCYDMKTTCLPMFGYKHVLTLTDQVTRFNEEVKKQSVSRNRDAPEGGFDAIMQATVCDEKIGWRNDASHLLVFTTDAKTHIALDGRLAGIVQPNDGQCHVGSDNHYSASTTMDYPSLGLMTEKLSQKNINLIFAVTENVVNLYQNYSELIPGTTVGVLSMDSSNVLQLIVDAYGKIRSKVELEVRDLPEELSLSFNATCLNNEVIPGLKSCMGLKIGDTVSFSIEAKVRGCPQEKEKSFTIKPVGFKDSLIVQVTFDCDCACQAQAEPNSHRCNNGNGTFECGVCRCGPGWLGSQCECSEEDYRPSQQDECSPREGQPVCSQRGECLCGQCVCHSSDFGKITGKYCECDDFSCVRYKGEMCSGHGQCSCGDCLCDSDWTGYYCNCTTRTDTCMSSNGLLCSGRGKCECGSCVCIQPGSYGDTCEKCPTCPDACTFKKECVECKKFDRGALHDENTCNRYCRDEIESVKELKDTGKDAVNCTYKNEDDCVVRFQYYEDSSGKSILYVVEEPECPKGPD

B1: yeast cytosine deaminase (yCD) (enzyme)
chain: MVVTGGMASKWDQKGMDIAYEEAALGYKEGGVPIGGCLINNKDGSVLGRGHNMRFQKGSATLHGEISTLENCGRLEGKVYKDTTLYTTLSPCDMCTGAIIMYGIPRCVVGENVNFKSKGEKYLQTRGHEVVVVDDERCKKIMKQFIDERPQDWFEDIGELEHHHHHH
notes: Recombinant, from pET28a(+), detected by its His6 tag
- binding result [1]: no binding

B2: RGD4C-EcCD_WT (other)
chain: MGCDCRGDCFCMSNNALQTIINARLPGEEGLWQIHLQDGKISAIDAQSGVMPITENSLDAEQGLVIPPFVEPHIHLDTTQTAGQPNWNQSGTLFEGIERWAERKALLTHDDVKQRAWQTLKWQIANGIQHVRTHVDVSDATLTALKAMLEVKQEVAPWIDLQIVAFPQEGILSYPNGEALLEEALRLRADVVGAIPHFEFTREYGVESLHKTFALAQKYDRLIDVHCDEIDDEQSRFVETVAALAHHEGMGARVTASHTTAMHSYNGAYTSRLFRLLKMSGINFVANPLVNIHLQGRFDTYPKRRGITRVKEMLESGINVCFGHDDVFDPWYPLGTANMLQVLHMGLHVCQLMGYGQINDGLNLITHHSARTLNLQDYGIAAGNSANLIILPAENGFDALRRQVPVRYSVRGGKVIASTQPAQTTVYLEQPEAIDYKRLEHHHHHH
notes: Fusion of the RGD4C peptide with E. coli cytosine deaminase; His6-tagged
- IC50 of 5-FC, MTT cytotoxicity, HUVEC cells incubated with 50 nM protein then washed [2]: 35.9 µM
- IC50 of 5-FC, MTT cytotoxicity, MCF-7 cells (low αvβ3) incubated with 50 nM protein then washed [2]: > 10000 µM
- IC50 of 5-FC, MTT cytotoxicity, U87MG cells incubated with 50 nM protein then washed [2]: 44.1 µM
- protein reaction concentration IC50 of cytotoxic effect, MTT, HUVEC cells, 100 µM 5-FC [3]: 0.0229 µM
- protein reaction concentration IC50 of cytotoxic effect, MTT, U87MG cells, 100 µM 5-FC [3]: 0.0385 µM
- fold binding ability against MCF-7 [4]: 16.1 fold
- fold binding ability against MCF-7 [5]: 23.7 fold
- Kd [6]: 0.007 µM
- Kd [7]: 0.0203 µM
- Kd [8]: 0.0138 µM
- Kd [9]: 0.327 µM

B3: RGD4C-EcCD_D314A (other)
chain: MGCDCRGDCFCMSNNALQTIINARLPGEEGLWQIHLQDGKISAIDAQSGVMPITENSLDAEQGLVIPPFVEPHIHLDTTQTAGQPNWNQSGTLFEGIERWAERKALLTHDDVKQRAWQTLKWQIANGIQHVRTHVDVSDATLTALKAMLEVKQEVAPWIDLQIVAFPQEGILSYPNGEALLEEALRLRADVVGAIPHFEFTREYGVESLHKTFALAQKYDRLIDVHCDEIDDEQSRFVETVAALAHHEGMGARVTASHTTAMHSYNGAYTSRLFRLLKMSGINFVANPLVNIHLQGRFDTYPKRRGITRVKEMLESGINVCFGHDAVFDPWYPLGTANMLQVLHMGLHVCQLMGYGQINDGLNLITHHSARTLNLQDYGIAAGNSANLIILPAENGFDALRRQVPVRYSVRGGKVIASTQPAQTTVYLEQPEAIDYKRLEHHHHHH
notes: Fusion of the RGD4C peptide with the E. coli cytosine deaminase D314A mutant; His6-tagged
- IC50 of 5-FC, MTT cytotoxicity, HUVEC cells incubated with 50 nM protein then washed [2]: 8.2 µM
- IC50 of 5-FC, MTT cytotoxicity, MCF-7 cells (low αvβ3) incubated with 50 nM protein then washed [2]: > 10000 µM
- IC50 of 5-FC, MTT cytotoxicity, U87MG cells incubated with 50 nM protein then washed [2]: 5 µM
- protein reaction concentration IC50 of cytotoxic effect, MTT, HUVEC cells, 100 µM 5-FC [3]: 0.0098 µM
- protein reaction concentration IC50 of cytotoxic effect, MTT, U87MG cells, 100 µM 5-FC [3]: 0.004 µM
- fold binding ability against MCF-7 [4]: 12.9 fold
- fold binding ability against MCF-7 [5]: 19.9 fold
- Kd [6]: 0.0091 µM
- Kd [7]: 0.0233 µM
- Kd [8]: 0.0151 µM
- Kd [9]: 0.3 µM

B4: DTPA-RGD4C-yCD (other)
chain: MACDCRGDCFCVTGGMASKWDQKGMDIAYEEAALGYKEGGVPIGGCLINNKDGSVLGRGHNMRFQKGSATLHGEISTLENCGRLEGKVYKDTTLYTTLSPCDMCTGAIIMYGIPRCVVGENVNFKSKGEKYLQTRGHEVVVVDDERCKKIMKQFIDERPQDWFEDIGELEHHHHHH
modifications: DTPA on primary amines, 0.94 DTPA per protein on average
- Kd [10]: 0.0476 µM
- Kd [11]: 0.0476 µM

B5: RGD4C-yCD/UPRT (other)
chain: MACDCRGDCFCVTGGMASKWDQKGMDIAYEEAALGYKEGGVPIGGCLINNKDGSVLGRGHNMRFQKGSATLHGEISTLENCGRLEGKVYKDTTLYTTLSPCDMCTGAIIMYGIPRCVVGENVNFKSKGEKYLQTRGHEVVVVDDERCKKIMKQFIDERPQDWFEDIGEASEPFKNVYLLPQTNQLLGLYTIIRNKNTTRPDFIFYSDRIIRLLVEEGLNHLPVQKQIVETDTNENFEGVSFMGKICGVSIVRAGESMEQGLRDCCRSVRIGKILIQRDEETALPKLFYEKLPEDISERYVFLLDPMLATGGSAIMATEVLIKRGVKPERIYFLNLICSKEGIEKYHAAFPEVRIVTGALDRGLDENKYLVPGLGDFGDRYYCVLEHHHHHH
notes: Fusion of the RGD4C peptide, yCD and yeast UPRT; His6-tagged recombinant protein; also called RGD4C-yCD/UPRPT
- IC50 of 5-FC, MTT cytotoxicity, HUVEC cells incubated with 500 nM protein then washed [12]: 8.6 µM
- IC50 of 5-FC, MTT cytotoxicity, MCF-7 cells (low αvβ3) incubated with 500 nM protein then washed [12]: 4340 µM
- IC50 of 5-FC, MTT cytotoxicity, U87MG cells incubated with 500 nM protein then washed [12]: 5.1 µM
- fold cell binding ability against MCF-7 [4]: ~6.9 fold
- fold cell binding ability against MCF-7 [5]: ~5.8 fold
- Kd [13]: 0.0483 µM
- Kd [14]: 0.0578 µM
- Kd [15]: 0.335 µM
- Kd [16]: 0.0417 µM

B6: EcCD_WT (enzyme, E. coli)
chain: MSNNALQTIINARLPGEEGLWQIHLQDGKISAIDAQSGVMPITENSLDAEQGLVIPPFVEPHIHLDTTQTAGQPNWNQSGTLFEGIERWAERKALLTHDDVKQRAWQTLKWQIANGIQHVRTHVDVSDATLTALKAMLEVKQEVAPWIDLQIVAFPQEGILSYPNGEALLEEALRLRADVVGAIPHFEFTREYGVESLHKTFALAQKYDRLIDVHCDEIDDEQSRFVETVAALAHHEGMGARVTASHTTAMHSYNGAYTSRLFRLLKMSGINFVANPLVNIHLQGRFDTYPKRRGITRVKEMLESGINVCFGHDDVFDPWYPLGTANMLQVLHMGLHVCQLMGYGQINDGLNLITHHSARTLNLQDYGIAAGNSANLIILPAENGFDALRRQVPVRYSVRGGKVIASTQPAQTTVYLEQPEAIDYKRLEHHHHHH
notes: Control without RGD4C; also called E. coli cytosine deaminase (EcCD) wild type
- binding result [17]: no binding

B7: EcCD_D314A (enzyme)
chain: MSNNALQTIINARLPGEEGLWQIHLQDGKISAIDAQSGVMPITENSLDAEQGLVIPPFVEPHIHLDTTQTAGQPNWNQSGTLFEGIERWAERKALLTHDDVKQRAWQTLKWQIANGIQHVRTHVDVSDATLTALKAMLEVKQEVAPWIDLQIVAFPQEGILSYPNGEALLEEALRLRADVVGAIPHFEFTREYGVESLHKTFALAQKYDRLIDVHCDEIDDEQSRFVETVAALAHHEGMGARVTASHTTAMHSYNGAYTSRLFRLLKMSGINFVANPLVNIHLQGRFDTYPKRRGITRVKEMLESGINVCFGHDAVFDPWYPLGTANMLQVLHMGLHVCQLMGYGQINDGLNLITHHSARTLNLQDYGIAAGNSANLIILPAENGFDALRRQVPVRYSVRGGKVIASTQPAQTTVYLEQPEAIDYKRLEHHHHHH
notes: Control without RGD4C; also called E. coli cytosine deaminase D314A mutant
- binding result [17]: no binding

B8: yCD/UPRT (enzyme)
chain: MVVTGGMASKWDQKGMDIAYEEAALGYKEGGVPIGGCLINNKDGSVLGRGHNMRFQKGSATLHGEISTLENCGRLEGKVYKDTTLYTTLSPCDMCTGAIIMYGIPRCVVGENVNFKSKGEKYLQTRGHEVVVVDDERCKKIMKQFIDERPQDWFEDIGEASEPFKNVYLLPQTNQLLGLYTIIRNKNTTRPDFIFYSDRIIRLLVEEGLNHLPVQKQIVETDTNENFEGVSFMGKICGVSIVRAGESMEQGLRDCCRSVRIGKILIQRDEETALPKLFYEKLPEDISERYVFLLDPMLATGGSAIMATEVLIKRGVKPERIYFLNLICSKEGIEKYHAAFPEVRIVTGALDRGLDENKYLVPGLGDFGDRYYCVLEHHHHHH
notes: Control fusion without RGD4C
- binding result [1]: no binding
